Laboratory results reported in the supplement of paper PMC10567573.
± gives the standard deviation.

Assay: protein stability index of a GFP-peptide fusion (GPS, HEK-293T) (PSI 1-6); higher = more stable
[1] = treatment: DMSO, c terminus: a fixed tail appended
[2] = treatment: MLN4924 1 uM, 8 h, c terminus: a fixed tail appended
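Further: 24-mer peptide tiles fused after GFP, lentivirally expressed, FACS-sorted into six equal bins by GFP/DsRed ratio, decoded by Illumina sequencing, PSI is the read-weighted mean bin number.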

Sequence	protein stability index [1]	protein stability index [2]	protein stability index (treatment: DMSO, c terminus: native)	protein stability index (treatment: MLN4924 1 uM, 8 h, c terminus: native)
GAGAGSSLLDVAEPGGPGWLPESD [SMAD6]	5.23 ± 0.19	5.01 ± 0.25	–	–
STFYPPYHSPELTTPPGHGTLDNS [NEUROD6]	4.27 ± 0.091	4.21 ± 0.22	–	–
SRVGKQSFIITLGCNSVLIQFATP [CARM1]	2.83 ± 0.4	2.97 ± 0.56	–	–
AANSYDLAIKAITSSAKVDMTFEE [FKBP8]	4.28 ± 0.24	4.36 ± 0.22	–	–
PNLNETSIVSGGYGGSGDGLIPTG [ARFIP2]	4.18 ± 0.13	4.45 ± 0.095	–	–
LSLFIPESPRWLYSQGRLSEAEEA [SLC22A15]	3.19 ± 0.35	3.44 ± 0.35	–	–
MAGTNALLMLENFIDGKFLPCSSY [ALDH8A1]	2.19 ± 0.35	2.12 ± 0.26	–	–
MADQDPAGISPLQQMVASGTGAVV [SLC25A39]	4.52 ± 0.22	4.42 ± 0.13	–	–
DSKPESALGAPSKSPSSPQAAFTQ [TBX5]	5.18 ± 0.36	5.21 ± 0.19	–	–
DLVNRTPWKKCCFSGDGEYIVAGS [RBBP5]	2.64 ± 0.25	2.37 ± 0.21	–	–
EKALKKNVKLQELINHKKAEDTEK [CEP70]	4.85 ± 0.34	5.07 ± 0.2	–	–
ENYETVISLALFVLPKPKVISCLE [ZNF75A]	3.11 ± 0.47	3.46 ± 0.28	–	–
PTWIIDPIDGTTNFVHRFPFVAVS [IMPA1]	2.36 ± 0.22	2.25 ± 0.25	–	–
GGQEEASQEAGLPAGAGPSPTFPA [SEPHS2]	5.56 ± 0.1	5.25 ± 0.23	–	–
SKRMGPMTVVRMDASVQPGPFRTL [RHOBTB1]	2.76 ± 0.14	2.91 ± 0.48	–	–
EAITDEERAPTATFHDSKHNIVHV [WDFY2]	4.72 ± 0.13	4.63 ± 0.3	–	–
TERMDKVGDALEEVLSKALSQRTI [GADD45A]	3.83 ± 0.26	3.83 ± 0.13	–	–
LTLQVYREQADSCREQLDIMNDLS [TRIM14]	2.99 ± 0.24	2.95 ± 0.1	–	–
QAINNAINYLGAESLRPLVQTPPG [IKZF1]	2.39 ± 0.29	2.25 ± 0.32	–	–
EMLSASRYPTISMVKPLLHMLLNT [ZBED1]	2.6 ± 0.81	3.02 ± 0.79	–	–
EEEPTGAGLNKDKETEERTDGERV [SDE2]	5.84 ± 0.13	5.61 ± 0.37	–	–
YFAIKQEVVTPDNMCMGRTSRGKL [ETS1]	3.5 ± 0.23	3.49 ± 0.22	–	–

Sequence	protein stability index [1]	protein stability index [2]	protein stability index (treatment: DMSO, c terminus: native)	protein stability index (treatment: MLN4924 1 uM, 8 h, c terminus: native)
RGVPLLEWETEVEMDKLRASDIME [CLCN6]	4.2 ± 0.043	4.3 ± 0.13	–	–
RQKVLSLPLPDPLKYYLLYYREK [PCMTD2]	–	–	2.14 ± 0.18	2.46 ± 0.19
QKGIPPSLRGRAWQYLSGGKVKLQ [TBC1D10A]	2.8 ± 0.13	3 ± 0.21	–	–
IDNTTVIYNSNIFTDPFFIVETLC [KCNA1]	2.72 ± 0.67	2.53 ± 0.37	–	–
VPLGPLGETYCEEHGEKIYFFCEN [TRIM15]	3.42 ± 0.15	3.54 ± 0.36	–	–
HVMGLYPDLLPTDYRKQLQYPNPL [VPS39]	2.34 ± 0.28	2.59 ± 0.24	–	–
VRVVFFPLFSNWWIQVTSLRIFVW [PHTF1]	2.79 ± 0.69	2.87 ± 0.77	–	–
ESMYGDFQEAMTHLQHKLICTRKP [TENT5D]	3.54 ± 0.17	3.58 ± 0.38	–	–
RAGLDLPTIDTGYDSQPQDVLGIR [TRAF3IP2]	4.25 ± 0.37	4.29 ± 0.18	–	–
VCDSCYDSIKDEDRTSLATFHEGK [WDFY1]	4.62 ± 0.28	4.83 ± 0.26	–	–
VPGLLLSYLMLVTVMMWPLAVYHR [RETREG3]	3.33 ± 0.44	3 ± 0.31	–	–
PTPMPHNKGTRFSEAWEYFHLAPA [ZBED2]	2.65 ± 0.2	2.71 ± 0.33	–	–
VVLDRHGVYGLQRNLLVENIIDIY [TRIM55]	2.44 ± 0.8	2.81 ± 0.099	–	–
KKMEQNKTAATRYRQKKRAEQEAL [ATF4]	4.48 ± 0.52	4.55 ± 0.33	–	–
ERIVVAGNNEDVSFSRPADLDLIQ [MFF]	4.96 ± 0.075	4.21 ± 0.32	–	–
VLKKQDAFYKEQLARLEERSSEFY [CHCHD3]	3.45 ± 0.34	3.48 ± 0.12	–	–
YRGAVYADNMEFEQCIKLWLHALH [FEM1B]	2.19 ± 0.27	2.22 ± 0.48	–	–
SLVSLVLYNMDLSDDHIRVIVQLH [ZER1]	2.63 ± 0.41	2.71 ± 0.54	–	–
LGSGQFAIVRKCRQKGTGKEYAAK [DAPK3]	3.55 ± 0.52	3.48 ± 0.16	–	–
YLEGFDPFNQSTFNNVVEQNFKNR [DLC1]	2.89 ± 0.26	3.15 ± 0.39	–	–
PLPESRREIEELLAEAKYYLVQGL [KCTD10]	2.56 ± 0.2	2.77 ± 0.4	–	–
GPALAGEPAGSLRELGVWRSLLRL [C2CD2L]	2.66 ± 0.23	2.56 ± 0.03	–	–

Sequence	protein stability index [1]	protein stability index [2]	protein stability index (treatment: DMSO, c terminus: native)	protein stability index (treatment: MLN4924 1 uM, 8 h, c terminus: native)
SGEDPTAAAPVAEVPTAAGALTPT [CLPTM1]	5.42 ± 0.16	5.47 ± 0.36	–	–
HTGEPLFSGSNEVDQMNRIVEVLG [DYRK1B]	3.59 ± 0.21	3.57 ± 0.25	–	–
YYTTMQTLTKQDTMLKAMFSGRME [KCTD10]	2.4 ± 0.16	2.4 ± 0.36	–	–
KAGQPESRALALFDIQKIMQEKNP [ZNF8]	4.06 ± 0.36	4.26 ± 0.12	–	–
LIHVYLPLTSHILRAFVNSQIQGH [SNX8]	3.2 ± 0.27	3.19 ± 0.52	–	–
LLIEGRSVNEHTEEGESLLCLACS [ANKRD17]	3.22 ± 0.6	3.27 ± 0.91	–	–
GCEDEYLVNPTCQVLVKDFTFEGF [ZER1]	2.89 ± 0.47	2.85 ± 0.4	–	–
LYELASLKRAFEAANLPALVLKIM [NEK8]	2.33 ± 0.36	2.12 ± 0.34	–	–
EQGEPLWTLEDEIHSPAHPEIEKA [ZNF649]	5.44 ± 0.44	5.57 ± 0.22	–	–
GLADVEANYVIVRAYQYTTLTSVQ [SLC35F2]	2.24 ± 0.53	2.66 ± 0.43	–	–
IYTEFPDETLRSGELLNMIVAVID [INTS3]	2.14 ± 0.29	2.47 ± 0.099	–	–
YFKCVQKDIQPYMRRMVATWMLEV [CCND2]	2.71 ± 0.55	2.4 ± 0.45	–	–
QCRERREHPNLVRDHVETELLKEA [TEKT4]	4.77 ± 0.19	4.97 ± 0.23	–	–
LPPGFVLKKDKKKEEKEDEISLED [ZC3H15]	5.54 ± 0.46	5.45 ± 0.36	–	–
ATDPFVAFHINKGLVKKYMNSLLI [FADS1]	2.46 ± 0.59	2.64 ± 0.43	–	–
PQARMREENMERIGEEVRQLMEKL [BEX1]	4.51 ± 0.33	4.52 ± 0.23	–	–
QENAIQTMELRNYFSLYCLHQETQ [SNX8]	2.58 ± 0.31	2.52 ± 0.4	–	–
TRHYRPPEVILELGWAQPCDVWSI [CLK3]	2.69 ± 0.65	2.47 ± 0.52	–	–
VELLLSHADCDRRSRIEALELLGA [FEM1B]	2.7 ± 0.19	2.78 ± 0.21	–	–
VACSETAPDLVLNAEMVQQTTYLE [LOXL2]	4.41 ± 0.53	4.5 ± 0.25	–	–
QHEESTEGEADHSGYAGELGFRAF [UFD1]	4.81 ± 0.31	4.88 ± 0.31	–	–
